From patent US20130189283A1 (Amgen, published 2013) come the findings set out here.

Sequences and labels used below:
T1: Soluble human IL-17R (huIL-17R-FpH) (human, UniProt Q96F46 33-320)
T1 construct: also called IL-17R extracellular domain
T1 sequence: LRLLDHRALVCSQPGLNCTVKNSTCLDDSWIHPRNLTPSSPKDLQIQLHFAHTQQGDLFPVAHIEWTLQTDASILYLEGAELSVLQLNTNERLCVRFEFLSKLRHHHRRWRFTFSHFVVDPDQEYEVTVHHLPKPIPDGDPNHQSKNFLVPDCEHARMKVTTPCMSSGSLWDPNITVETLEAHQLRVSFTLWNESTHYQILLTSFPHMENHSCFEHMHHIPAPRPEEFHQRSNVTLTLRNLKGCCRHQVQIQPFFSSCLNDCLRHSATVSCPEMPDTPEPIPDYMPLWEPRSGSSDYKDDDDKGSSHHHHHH

B1: Antibody 16435 (antibody, human IgG2, kappa, V domains shown)
VH: QVQLVQSGAEVKKPGASVKVSCKASGYTFTRYGISWVRQAPGQGLEWMGWISTYSGNTNYAQKLQGRVTMTTDTSTSTAYMELRSLRSDDTAVYYCARAQLYFDYWGQGTLVTVSS
VL: EIVMTQSPATLSVSPGERATLSCRASQSVSSNLAWFQQKPGQAPRLLIYDASTRATGVPARFSGSGSGTEFTLTISSLQSEDFAVYYCQQYDNWPLTFGGGTKVEIKR
notes: also called LC: P66L, D90E
B2: Antibody 16438 (antibody, V domains shown)
VH: QVQLVQSGAEVKKPGASVKVSCKASGYTFTRYGISWVRQAPGQGLEWMGWISTYSGNTNYAQKLQGRVTMTTDTSTSTAYMELRSLRSDDTAVYYCARRQQYFDYWGQGTLVTVSS
VL: EIVMTQSPATLSVSPGERATLSCRASQSVSSNLAWFQQKPGQAPRLLIYDASTRATGVPARFSGSGSGTEFTLTISSLQSEDFAVYYCQQYDNWPLTFGGGTKVEIK
B3: Antibody 16440 (antibody, V domains shown)
VH: QVQLVQSGAEVKKPGASVKVSCKASGYTFTRYGISWVRQAPGQGLEWMGWISTYSGNTNYAQKLQGRVTMTTDTSTSTAYMELRSLRSDDTAVYYCARAQQYFDYWGQGTLVTVSS
VL: EIVMTQSPATLSVSPGERATLSCRASQSVSSNLAWFQQKPGQAPRPLIYDASTRATGVPARFSGSGSGTDFTLTISSLQSEDFAVYYCQQYDNWPLTFGGGTKVEIK
B4: Antibody 16441 (antibody, V domains shown)
VH: QVQLVQSGAEVKKPGASVKVSCKASGYTFTRYGISWVRQAPGQGLEWMGWISTYSGNTNYAQKLQGRVTMTTDTSTSTAYMELRSLRSDDTAVYYCARAQQYFDYWGQGTLVTVSS
VL: EIVMTQSPATLSVSPGERATLSCRASQSVSSNLAWFQQKPGQAPRLLIYDASTRATGVPARFSGSGSGTEFTLTISSLQSEDFAVYYCQQYDNWPLTFGGGTKVEIK
B5: Antibody 16439 (antibody, V domains shown)
VH: QVQLVQSGAEVKKPGASVKVSCKASGYTFTRYGISWVRQAPGQGLEWMGWISTYSGNTNYAQKLQGRVTMTTDTSTSTAYMELRSLRSDDTAVYYCARRQQYFDYWGQGTLVTVSS
VL: EIVMTQSPATLSVSPGERATLSCRASQSVSSNLAWFQQKPGQAPRLLIYDASTRATGVPARFSGSGSGTEFTLTISSLQSEDFAVYYCQQYDNAPLTFGGGTKVEIK
B6: Antibody 16444 (antibody, human IgG2, kappa, V domains shown)
VH: QVQLVQSGAEVKKPGASVKVSCKASGYTFTRYGISWVRQAPGQGLEWMGWISTYSGNTNYAQKLQGRVTMTTDTSTSTAYMELRSLRSDDTAVYYCARAQQYFDYWGQGTLVTVSS
VL: EIVMTQSPATLSVSPGERATLSCRASQSVSSNLAWFQQKPGQAPRLLIYDASTRATGVPARFSGSGSGTEFTLTISSLQSEDFAVYYCQQYDNAPLTFGGGTKVEIKR
notes: also called LC: P66L, D90E, W114A
B7: Antibody 10183 (antibody, V domains shown)
VH: QVQLQESGPGLVKPSQTLSLTCTVSGGSISSGDYFWSWIRQLPGKGLEWIGHIHNSGTTYYNPSLKSRVTISVDTSKKQFSLRLSSVTAADTAVYYCARDRGGDYAYGMDVWGQGTTVTVSS
VL: EIVLTQSPGTLSLSPGERATLSCRASQGISRSRLAWYQQKPGQAPSLLIYGASSRATGIPDRFSGSGSGTDFTLTISRLEPEDFAVYYCQQFGSSPWTFGQGTKVEIK
B8: Antibody 4341 (antibody, human IgG1, kappa, V domains shown)
VH: QVQLQESGPGLVKPSQTLSLTCTVSGGSISSGDYFWSWIRQLPGKGLEWIGHIHNSGTTYYNPSLKSRVTISVDTSKKQFSLRLSSVTAADTAVYYCARDRGGDYAYGMDVWGQGTTVTVSS
VL: EIVLTQSPGTLSLSPGERATLSCRASQGISRSELAWYQQKPGQAPSLLIYGASSRATGIPDRFSGSGSGTDFTLTISRLEPEDFAVYYCQQFGSSPWTFGQGTKVEIKR
notes: also called LC:Y53E)
B9: Antibody 4241 (antibody, human IgG1, kappa, V domains shown)
VH: QVQLQESGPGLVKPSQTLSLTCTVSGGSISSGDYFWSWIRQLPGKGLEWIGHIHNSGTTYYNPSLKSRVTISVDTSKKQFSLRLSSVTAADTAVYYCARDRGGDYEYGMDVWGQGTTVTVSS
VL: EIVLTQSPGTLSLSPGERATLSCRASQGISRSALAWYQQKPGQAPSLLIYGASSRATGIPDRFSGSGSGTDFTLTISRLEPEDFAVYYCQQFGSSPWTFGQGTKVEIKR
notes: also called LC:Y53A)
B10: Antibody 10184 (antibody, V domains shown)
VH: QVQLQESGPGLVKPSQTLSLTCTVSGGSISSGDYFWSWIRQLPGKGLEWIGHIHNSGTTYYNPSLKSRVTISVDTSKKQFSLRLSSVTAADTAVYYCARDRGGDYRYGMDVWGQGTTVTVSS
VL: EIVLTQSPGTLSLSPGERATLSCRASQGISRSRLAWYQQKPGQAPSLLIYGASSRATGIPDRFSGSGSGTDFTLTISRLEPEDFAVYYCQQFGSSPWTFGQGTKVEIK

For one assay, the target named is T1, Soluble human IL-17R (huIL-17R-FpH). As to the kind of experiment: BIAcore solution equilibrium assay: antibody incubated with IL-17R, free IL-17R read on immobilised antibody 16429.
In the case of B1, the binding result is recorded as “no binding (tested: 30 µM antibody with 30 nM IL-17R)”.

Consider B2, for which the binding result is on record as “no binding (tested: 30 µM antibody with 30 nM IL-17R)”.

With B3, the binding result is “no binding (tested: 30 µM antibody with 30 nM IL-17R)”.

As to B4, the binding result is listed as “no binding (tested: 30 µM antibody with 30 nM IL-17R)”.

Regarding B5, the binding result is “no binding (tested: 30 µM antibody with 30 nM IL-17R)”.

Turning to B6, the binding result is on record as “no binding (tested: 30 µM antibody with 30 nM IL-17R)”.

In another assay the target is T2, Soluble human TR2 (huTR2 long-huFc (IgG1)) (human).
T2 construct: also called Trail Receptor 2; TRAIL (huTR2)
T2 sequence (chain, as listed by the source limits assumed): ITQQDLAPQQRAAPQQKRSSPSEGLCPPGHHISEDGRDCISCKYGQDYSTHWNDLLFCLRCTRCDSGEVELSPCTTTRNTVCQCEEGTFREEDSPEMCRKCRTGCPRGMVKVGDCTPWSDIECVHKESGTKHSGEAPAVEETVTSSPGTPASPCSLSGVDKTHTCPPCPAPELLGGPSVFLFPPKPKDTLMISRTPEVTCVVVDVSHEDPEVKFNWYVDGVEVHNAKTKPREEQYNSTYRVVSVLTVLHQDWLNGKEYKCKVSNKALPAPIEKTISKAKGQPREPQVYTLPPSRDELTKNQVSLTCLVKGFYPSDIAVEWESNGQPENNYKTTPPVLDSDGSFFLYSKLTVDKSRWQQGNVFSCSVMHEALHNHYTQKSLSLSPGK
Nature of the assay: BIAcore solution equilibrium assay: antibody incubated with TR2, free TR2 read on immobilised antibody 16449.
Turning to B7, the binding result is reported as “no binding (tested: 50 µM antibody with 10 nM TR2)”.

As to B8, the binding result is given as “no binding (tested: 50 µM antibody with 10 nM TR2)”.

Turning to B9, the binding result is listed as “no binding (tested: 50 µM antibody with 10 nM TR2)”.

Take B10: the binding result is on record as “no binding (tested: 50 µM antibody with 10 nM TR2)”.
